Laboratory results taken from paper PMC8622166.

Key:
[1] = molecular target: RAC3 (human), P60763; assay: stopped-flow fluorimetry; kon from kobs against increasing GDI concentrations mixed with 0.2 µM mdGDP-bound RHO GTPase; koff by displacement with excess unlabeled GDP-bound RHO protein; Kd = koff/kon; 25 °C, 30 mM Tris/HCl pH 7.5, 10 mM K2HPO4/KH2PO4 pH 7.5, 5 mM MgCl2, 3 mM DTT; conditions: remark: other sources report otherwise
[2] = molecular target: RAC2 (human), P15153; assay: as above; conditions: remark: other sources report otherwise

B1: GDI2, P52566 1-201 (natural protein)
chain: MTEKAPEPHVEEDDDDELDSKLNYKPPPQKSLKELQEMDKDDESLIKYKKTLLGDGPVVTDPKAPNVVVTRLTLVCESAPGPITMDLTGDLEALKKETIVLKEGSEYRVKIHFKVNRDIVSGLKYVQHTYRTGVKVDKATFMVGSYGPRPEEYEFLTPVEEAPKGMLARGTYHNKSFFTDDDKQDHLSWEWNLSIKKEWTE
fold faster kon than GDI1 [1]: > 10 fold
fold slower koff than GDI1 [1]: < 4 fold
Kd [2]: 18.8 µM
